By EC50 is commonly meant the midpoint of the concentration-response curve. What is called Kd is the concentration at which binding is half-saturated. A low value points to a tighter complex. The term koff denotes a measure of how fast the partners let go of each other. Lower therefore signals slow dissociation. Broadly, the kon is the rate constant with which the complex forms.

The target of test [1] is T1, Human B7-H4 with HisFlag tag (huB7-H4-his) (human, UniProt Q7Z7D3 25-258).
T1 construct: also called HuB7-H4 His protein; huB7-H4-HF
T1 sequence: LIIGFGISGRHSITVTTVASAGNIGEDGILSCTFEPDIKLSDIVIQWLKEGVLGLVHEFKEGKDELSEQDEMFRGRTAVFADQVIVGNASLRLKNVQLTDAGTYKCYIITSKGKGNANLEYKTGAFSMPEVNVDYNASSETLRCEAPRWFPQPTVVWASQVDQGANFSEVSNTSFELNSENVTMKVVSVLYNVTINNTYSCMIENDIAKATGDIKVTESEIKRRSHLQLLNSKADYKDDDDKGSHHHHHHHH
Nature of the test: indirect ELISA, plate coated with HuB7-H4 His. How it is done:
The plate was washed with PBST (PBS comprising 0.05% Tween-20, pH 7.4) four times, and then 150 μl/well of 3% bovine serum albumin (BSA) blocking solution diluted in PBST was added, and incubated at room temperature for 1 hour for blocking. After the blocking was finished, the blocking solution was discarded and the plate was washed 4 times with PBST buffer.
The antibodies to be tested were diluted with PBST comprising 3% BSA at a gradient of 10-fold dilution, starting from 1 μM with a total of 10 doses. The dilutions were added into the plate at 100 μl/well, and incubated at room temperature for 1 hour. After the incubation was finished, the plate was washed 4 times with PBST, 100 μl/well of HRP-labeled goat anti-human secondary antibody (Abeam, cat #ab97225) diluted in PBST comprising 3% BSA was added and incubated at room temperature for 1 hour. The plate was washed 4 times with PBST, 100 μl/well TMB chromogenic substrate (Cell Signaling Technology, cat #7004S) was added and incubated at room temperature in darkness for 1 minute, and 100 μl/well of Stop Solution (Cell Signaling Technology, cat #7002S) was added to terminate the reaction. The absorbance was read at 450 nm using a microplate reader (BioTek, model Synergy H1), and the data was analyzed.
Background: An ELISA detects its analyte on a solid surface through an enzyme-linked reagent.

Test [2] deals with T1, Human B7-H4 with HisFlag tag …. Kind of test: SPR Biacore T200, antibody coupled to CM5 chip, series of huB7-H4-his concentrations, 1:1 model. How it is done:
b). A series of concentrations of human huB7-H4-his protein diluted by the same buffer were respectively loaded at the flow rate of 10 μL/min and the chip was regenerated with the regeneration reagent provided in the kit. Antigen-antibody binding kinetics were recorded for 3 minutes and dissociation kinetics were recorded for 10 minutes. The resulting data were analyzed by GE's BIAevaluation Software using 1:1 (Langmuir) binding model.
(In SPR one partner is held on a chip, and binding of the other changes the refractive index at the surface.)

The target is the same in test [3]. Kind of test: SPR Biacore T200, antibody coupled to CM5 chip, 50 nM huB7-H4-his in flow, 1:1 model. On the procedure: a). 50 nM human huB7-H4-his protein (Sino Biological #10738-H08H) diluted by the same buffer was loaded at a flow rate of 10 μL/min, and the chip was regenerated with the regeneration reagent provided in the kit. Antigen-antibody binding kinetics were recorded for 3 minutes and dissociation kinetics were recorded for 10 minutes. The resulting data were analyzed by GE's BIAevaluation Software using 1:1 (Langmuir) binding model.

B1: chimeric antibody 2F7 (antibody, human IgG1, V domains shown)
VH: EVQLVESGGGLVQPGGSLKLSCAASGFTFSNYYMSWVRQTPEKRLEWVAYVSSGGGSTYYSDSVKGRFTISRDNAKNTLYLQMSSLKPEDTAMYYCTRESYSQGNYFDYWGQGTTLTVSS
VL: DIVMTQSPATLSVTPGDRVSLSCRASQSISDYLHWYQQKSHESPRLLIKFASQSISGIPSRFSGSGSGSDFTLSINSVEPEDVGVYYCQNGHSFSLTFGAGTKLELK
notes: also called ch-2F7
Turning to B1, the 50% effective concentration (EC50) in test [1] is 0.17 nM. In test [2], this molecule showed a Kd of 68.8 nM, an off-rate constant (koff) of 0.00304 s⁻¹ and a kon of 44200 M⁻¹ s⁻¹.

B2: murine mAb 2F7 (antibody, V domains shown)
VH: EVQLVESGGGLVQPGGSLKLSCAASGFTFSNYYMSWVRQTPEKRLEWVAYVSSGGGSTYYSDSVKGRFTISRDNAKNTLYLQMSSLKPEDTAMYYCTRESYSQGNYFDYWGQGTTLTVSS
VL: DIVMTQSPATLSVTPGDRVSLSCRASQSISDYLHWYQQKSHESPRLLIKFASQSISGIPSRFSGSGSGSDFTLSINSVEPEDVGVYYCQNGHSFSLTFGAGTKLELK
notes: Murine antibody from hybridoma
Turning to B2, the koff in test [3] stood at 0.00253 s⁻¹.

B3: chimeric antibody 2F8 (antibody, human IgG1, V domains shown)
VH: QVQLQQPGSVLVRPGASVKLSCKASGYTFTNSWMNWAKLRPGQGLEWIGGIYPNSGNIEYNEKFKGKATLTVDTSSSTAYMDLTSLTSEDSAVYYCARDSRFSYWGQGTLVTVSA
VL: DIVMTQSHKFMSTSVGDRVSITCKASQDVRTAVAWYQQKPGQSPKLLISSTSYRYTGVPDRFTGSGSGTDFTFIISSVQAEDLAVYYCQQHYSTPLTFGAGTKLELK
notes: also called ch-2F8
Turning to B3, the EC50 in test [1] was found to be 0.067 nM. Also, in test [2], the Kd came out at 0.119 nM, the koff turned out to be 0.000114 s⁻¹ and the on-rate constant (kon) is 1.13e+06 M⁻¹ s⁻¹.

B4: chimeric antibody 1C9 (antibody, human IgG1, V domains shown)
VH: QVQLQQPGSVLVRPGASVKLSCKASGDTFTTYWMNWVKQRPGQGLEWIGGIYLNSGSSEYNEKFKGKATLSVDTSSSTAYMDLSSLTSEDSAVYYCARDSRFSYWGQGTLVTVSA
VL: DIVMTQSHKFLSTSVGDRVSITCKASQDVSTAVAWYQQKPGQSPELLISSASYRYTGVPDRFTGSGSGTDFTFTISSVQAEDLAVYYCQQHYNTPLTFGAGTQLELK
For B4, the EC50 in test [1] came to 0.068 nM.

B5: murine mAb 2E4 (antibody, V domains shown)
VH: QVQLQQPGSVLVRPGTSVKLSCKASGYTFTSSWMNWVKQRPGQGLEWIGGIYPNRGTTEYNEKFKGKATLTVDTSSSTAFMDLNRLTSEDSAVYYCARDSRFADWGQGTLVTVSA
VL: DIMLTQSHKFMSTSVGDRVSITCKASQDVSAAVAWYQQKPGQSPKLLISSASYRYTGVPDRFTGSGSGTDFTFTISSVQAEDLAVYYCQQHYNTPLTFGAGTKLELK
notes: as for B2
As for B5, in test [3], the koff amounted to 5.97e-05 s⁻¹.

B6: murine mAb 2F8 (antibody, V domains shown)
VH: QVQLQQPGSVLVRPGASVKLSCKASGYTFTNSWMNWAKLRPGQGLEWIGGIYPNSGNIEYNEKFKGKATLTVDTSSSTAYMDLTSLTSEDSAVYYCARDSRFSYWGQGTLVTVSA
VL: DIVMTQSHKFMSTSVGDRVSITCKASQDVRTAVAWYQQKPGQSPKLLISSTSYRYTGVPDRFTGSGSGTDFTFIISSVQAEDLAVYYCQQHYSTPLTFGAGTKLELK
notes: as for B2
For the molecule B6, the koff in test [3] turned out to be 6.87e-05 s⁻¹.

B7: chimeric antibody 2A10 (antibody, human IgG1, V domains shown)
VH: EVQLVESGGGFVKPGGSLKLSCAASGFTFSTFGMSWVRQTPDKRLEWVAGISPGGSYTYYPDTVKGRFTISRDNARNTLYLQMSSLRSEDSAMYYCTRGRSVWGTGTTVTVSS
VL: DILMTQSPSSMSVSLGDTVSITCHASQDISSNIGWLQQKPGKSFKGLIYHGTTLEDGIPSRFSGSGSGADYSLTISSLESEDFADYYCVQSAQFPWTFGGGTKLEIK
As for B7, in test [1], the EC50 is 0.071 nM.

B8: chimeric antibody 2G6 (antibody, human IgG1, V domains shown)
VH: EVQLVESGGGLVKPGGSLKLSCAASGFTFSRYGMSWVRQTPEKRLEWVAGINGGGSYTYYLDTVKGRFTISRDNSRNTLYLQMSSLRSEDTAMYYCVSQGSNYYFDYWGQGTTLTVSS
VL: DIRMTQSPSSMSVSLGDTVSITCHASQGISSNIGWLQQKPGKSFKALIYHGTNLEDGVPSRFSGSGSGADYSLTISSLESEDFADYYCVQYAQFPYTFGGGTKLEIK
Consider B8, for which the EC50 in test [1] worked out at 0.081 nM.

B9: murine mAb 2F4 (antibody, V domains shown)
VH: EVQLVESGGGLVKPGGSLKLSCAASGLTFSRYAMSWVRQTPEKRLEWVAGISSGGSYTYYSDTVKGRFTISRDNVRNTLYLQMSSLRSEDTAMYYCGREYGRDYWGQGTSVTVSS
VL: DILMTQSPSSMSVSLGDTVSITCHASQGINSNIGWLQQKPGKSFKGLIYHGTNLEDGVPSRFSGSGSGTDYSLTISSLESEDFADYYCVQYAQFPRTFGGGTTLEIK
notes: as for B2
Molecule B9 registered an off-rate constant (koff) in test [3] of 0.00166 s⁻¹.

B10: murine mAb 1E4 (antibody, V domains shown)
VH: EVQLVESGGGLVKPGGSLKLSCAASGFTFSRYAMSWVRQTPEKRLEWVAGISSGGSYTYYPDTLKGRFTVSRDNARNTLYLQMSSLRSEDTAKYFCASQGSNHYFDYWGQGTTLTVSS
VL: DTLMTQSPSSMSVSLGDTVSITCHASQGIHNNIGWLQQKPGKSFKALIYHGTNLEDGVPSRFSGSGSGADYSLIISSLESEDFADYYCVQYAQFPYTFGGGTKLEIK
notes: as for B2
For the molecule B10, in test [3], the koff turned out to be 0.000293 s⁻¹.

B11: murine mAb 2A10 (antibody, V domains shown)
VH: EVQLVESGGGFVKPGGSLKLSCAASGFTFSTFGMSWVRQTPDKRLEWVAGISPGGSYTYYPDTVKGRFTISRDNARNTLYLQMSSLRSEDSAMYYCTRGRSVWGTGTTVTVSS
VL: DILMTQSPSSMSVSLGDTVSITCHASQDISSNIGWLQQKPGKSFKGLIYHGTTLEDGIPSRFSGSGSGADYSLTISSLESEDFADYYCVQSAQFPWTFGGGTKLEIK
notes: as for B2
As for B11, the koff in test [3] is 0.000331 s⁻¹.

B12: chimeric antibody 2F4 (antibody, human IgG1, V domains shown)
VH: EVQLVESGGGLVKPGGSLKLSCAASGLTFSRYAMSWVRQTPEKRLEWVAGISSGGSYTYYSDTVKGRFTISRDNVRNTLYLQMSSLRSEDTAMYYCGREYGRDYWGQGTSVTVSS
VL: DILMTQSPSSMSVSLGDTVSITCHASQGINSNIGWLQQKPGKSFKGLIYHGTNLEDGVPSRFSGSGSGTDYSLTISSLESEDFADYYCVQYAQFPRTFGGGTTLEIK
notes: also called ch-2F4
Turning to B12, the half-maximal effective concentration (EC50) in test [1] amounted to 0.056 nM. In test [2], the Kd was determined as 2.5 nM, the koff was found to be 0.00259 s⁻¹ and the kon stood at 1.04e+06 M⁻¹ s⁻¹.

B13: murine mAb 2G6 (antibody, V domains shown)
VH: EVQLVESGGGLVKPGGSLKLSCAASGFTFSRYGMSWVRQTPEKRLEWVAGINGGGSYTYYLDTVKGRFTISRDNSRNTLYLQMSSLRSEDTAMYYCVSQGSNYYFDYWGQGTTLTVSS
VL: DIRMTQSPSSMSVSLGDTVSITCHASQGISSNIGWLQQKPGKSFKALIYHGTNLEDGVPSRFSGSGSGADYSLTISSLESEDFADYYCVQYAQFPYTFGGGTKLEIK
notes: as for B2
In test [3], B13 had a koff of 8.91e-05 s⁻¹.

B14: chimeric antibody M1 (antibody, V domains shown)
VH: EIQLQQSGPELVMPGASVKVSCTASGYPFTTYNMYWVKQSHGKSLEWIAYIDPYNGGTSYNQKFKGKATLTVDKSSSTAYMHLNSLTSEDSAVYYCARSGFYDGYYAWYFDVWGAGTTVTVSS
VL: DVVMTQTPLSLPVSLGDQASISCRSSQSLVHSGGNTYLHWYLQKPGQSPKLLIYKVSNRFSGVPDRFSGSGSGTDFTLKISRVEAEDLGVYFCSQSTHVPLTFGAGTKLELK
notes: also called ch-M1
In the case of B14, in test [1], the half-maximal effective concentration (EC50) is 0.063 nM. In test [2], this molecule displayed a Kd of 0.14 nM, a koff of 9.41e-05 s⁻¹ and a kon of 674000 M⁻¹ s⁻¹.

B15: M1 (listed as murine antibody) (antibody, V domains shown)
VH: EIQLQQSGPELVMPGASVKVSCTASGYPFTTYNMYWVKQSHGKSLEWIAYIDPYNGGTSYNQKFKGKATLTVDKSSSTAYMHLNSLTSEDSAVYYCARSGFYDGYYAWYFDVWGAGTTVTVSS
VL: DVVMTQTPLSLPVSLGDQASISCRSSQSLVHSGGNTYLHWYLQKPGQSPKLLIYKVSNRFSGVPDRFSGSGSGTDFTLKISRVEAEDLGVYFCSQSTHVPLTFGAGTKLELK
In the case of B15, the koff in test [3] is 3.98e-05 s⁻¹.

The values above are taken from patent US20210032347A1 (JIANGSU HANSOH PHARMACEUTICAL GROUP, published 2021).
